Measurements from patent publication US11912794B2, “Modulation of structured polypeptide specificity” (BicycleRD Limited, priority 2011, dated 2024).
Ends that are not written are not given here.

Target: T1, Biotinylated hPK (Homo sapiens, UniProt P03952)
T1 construct: IHPKA, from human plasma; purchased Innovative Research, Novi, MI, USA IHPKA; host or cells: human plasma
Assay: Phage selections, abundance of sequences in selection outputs
Assay type: binding
Conditions: for Frequency (relative abundance in the total selection outputs): randomised WPAR motif at positions 2, 3, 4 & 5 within the 06-34-03 sequence
Experimental: Glycerol stocks of phage libraries were diluted to OD600=0.1 in 500 ml 2YT/chloramphenicol (30 μg/ml) cultures and phage were produced at 30° C. over night (15-16 hrs). Phage were purified and chemically modified as described in Heinis, et al., Nat Chem Biol 2009, 5 (7), 502-7 Biotinylated hPK (3 μg) (IHPKA, from human plasma, Innovative Research, Novi, MI, USA) was incubated with 50 μl pre-washed magnetic streptavidin beads (Dynal, M-280 from Invitrogen, Paisley, UK) for 10 minutes at RT. […] Blocked beads were then mixed with the blocked chemically modified phage and incubated for 30 minutes on a rotating wheel at RT. Beads were washed 8 times with washing buffer containing 0.1% Tween 20 and twice with washing buffer before incubation with 100 μl of 50 mM glycine, pH 2.2 for 5 minutes. Eluted phage were transferred to 50 μl of 1 M Tris-Cl, pH 8 for neutralization, incubated with 30 ml TG1 cells at OD600=0.4 for 90 minutes at 37° C. and the cells were plated on large 2YT/chloramphenicol plates. One or two additional rounds of panning were performed using the same procedures. In the second round of selection, neutravidin-coated magnetic beads were used to prevent the enrichment of streptavidin-specific peptides. The neutravidin beads were prepared by reacting 0.8 mg neutravidin (Pierce, Rockford, IL, USA) with 0.5 ml tosyl-activated magnetic beads (Dynal, M-280 from Invitrogen, Paisley, UK) according to the supplier's instructions.
The WPAR (SEQ ID NO: 18) motif identified from Example 1 was analysed in the context of the 06-34-03 peptide, in order to identify alternatives or improvements to the WPAR (SEQ ID NO: 18) motif. A library was constructed where positions 1, 6, 7, 8, 9 &10 of 06-34-03 were fixed and positions 2, 3, 4 & 5 were randomised (see ‘Randomisation of peptide domains—Library construction’ in Methods above). Selections against human plasma Kallikrein were performed at a variety of stringencies (see Phage selections' in Methods above). All output sequences were identified and analysed for target binding (see ‘Randomisation of peptide domains—Assay of binding of individual clones’ in Methods above). Table 17 lists each unique sequence, its relative abundance in the selection output (frequency), and a rank number according to target binding strength.

[1] = 2nd stringency from High (1st value of cell)
[2] = 3rd stringency from High (2nd value of cell)
[3] = 4th stringency from High (3rd value of cell)
[4] = 5th stringency from High (4th value of cell)

T1 sequence (P03952 20-638): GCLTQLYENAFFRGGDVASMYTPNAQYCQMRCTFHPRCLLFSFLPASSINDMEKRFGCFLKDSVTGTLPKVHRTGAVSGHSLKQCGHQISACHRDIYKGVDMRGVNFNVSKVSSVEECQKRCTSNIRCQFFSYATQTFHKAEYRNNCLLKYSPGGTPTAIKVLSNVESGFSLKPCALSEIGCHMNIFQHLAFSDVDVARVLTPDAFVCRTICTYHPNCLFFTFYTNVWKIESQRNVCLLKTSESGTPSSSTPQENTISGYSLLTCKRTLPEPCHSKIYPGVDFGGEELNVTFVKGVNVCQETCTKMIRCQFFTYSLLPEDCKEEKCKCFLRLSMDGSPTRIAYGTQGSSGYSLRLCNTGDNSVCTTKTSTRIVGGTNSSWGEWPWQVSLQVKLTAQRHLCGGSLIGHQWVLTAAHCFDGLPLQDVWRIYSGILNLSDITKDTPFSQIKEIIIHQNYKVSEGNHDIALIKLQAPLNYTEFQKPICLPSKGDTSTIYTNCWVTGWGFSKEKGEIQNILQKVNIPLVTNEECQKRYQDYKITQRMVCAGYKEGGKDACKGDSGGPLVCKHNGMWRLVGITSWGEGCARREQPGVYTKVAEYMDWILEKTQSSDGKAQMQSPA

SEQ ID NO: 113 (CSHRRWCTHQDLC; Synthetic sequence Kallikrein binder identified from selections using a randomised WPAR motif at positions 2, 3, 4 & 5 within the 06-34-03 sequence of PCT/EP2012/069898 (SEQ ID NO 58))
Frequency (relative abundance in the total selection outputs): 1

SEQ ID NO: 98 (CSYPYRCTHQDLC; Synthetic sequence Kallikrein binder identified from selections using a randomised WPAR motif at positions 2, 3, 4 & 5 within the 06-34-03 sequence of PCT/EP2012/069898 (SEQ ID NO 58))
Frequency (relative abundance in the total selection outputs): 2

SEQ ID NO: 76 (CSWLARCTHQDLC; Synthetic sequence Kallikrein binder identified from selections using a randomised WPAR motif at positions 2, 3, 4 & 5 within the 06-34-03 sequence of PCT/EP2012/069898 (SEQ ID NO 58))
Frequency (relative abundance in the total selection outputs): 8

WSAR: phage clone: WSAR at positions 2-5 within the 06-34-03 sequence, TBMB-cyclised (also: TBMB-cyclised within the 06-34-03 context, the cysteines lie outside this motif)
Relative abundance of motif in selection output [1]: 3% | Relative abundance of motif in selection output [2]: 3% | Relative abundance of motif in selection output [3]: 7% | Relative abundance of motif in selection output [4]: 6% | Relative abundance of motif in selection output (stringency High): 3% | Relative abundance of motif in selection output (stringency LOW): 11%

SEQ ID NO: 103 (CSMPYRCTHQDLC; Synthetic sequence Kallikrein binder identified from selections using a randomised WPAR motif at positions 2, 3, 4 & 5 within the 06-34-03 sequence of PCT/EP2012/069898 (SEQ ID NO 58))
Frequency (relative abundance in the total selection outputs): 2

SEQ ID NO: 108 (CSWSYRCTHQDLC; Synthetic sequence Kallikrein binder identified from selections using a randomised WPAR motif at positions 2, 3, 4 & 5 within the 06-34-03 sequence of PCT/EP2012/069898 (SEQ ID NO 58))
Frequency (relative abundance in the total selection outputs): 1

SEQ ID NO: 110 (CSQVVGCTHQDLC; Synthetic sequence Kallikrein binder identified from selections using a randomised WPAR motif at positions 2, 3, 4 & 5 within the 06-34-03 sequence of PCT/EP2012/069898 (SEQ ID NO 58))
Frequency (relative abundance in the total selection outputs): 1

SEQ ID NO: 105 (CSYPWRCTHQDLC; Synthetic sequence Kallikrein binder identified from selections using a randomised WPAR motif at positions 2, 3, 4 & 5 within the 06-34-03 sequence of PCT/EP2012/069898 (SEQ ID NO 58))
Frequency (relative abundance in the total selection outputs): 1

SEQ ID NO: 79 (CSWAARCTHQDLC; Synthetic sequence Kallikrein binder identified from selections using a randomised WPAR motif at positions 2, 3, 4 & 5 within the 06-34-03 sequence of PCT/EP2012/069898 (SEQ ID NO 58))
Frequency (relative abundance in the total selection outputs): 1

SEQ ID NO: 107 (CSFSYKCTHQDLC; Synthetic sequence Kallikrein binder identified from selections using a randomised WPAR motif at positions 2, 3, 4 & 5 within the 06-34-03 sequence of PCT/EP2012/069898 (SEQ ID NO 58))
Frequency (relative abundance in the total selection outputs): 1

WPYR: phage clone: WPYR at positions 2-5 within the 06-34-03 sequence, TBMB-cyclised (also: TBMB-cyclised within the 06-34-03 context, the cysteines lie outside this motif)
Relative abundance of motif in selection output [1]: 3% | Relative abundance of motif in selection output [2]: 0% | Relative abundance of motif in selection output [3]: 4% | Relative abundance of motif in selection output [4]: 0% | Relative abundance of motif in selection output (stringency High): 3% | Relative abundance of motif in selection output (stringency LOW): 0%

SEQ ID NO: 104 (CSIPFKCTHQDLC; Synthetic sequence Kallikrein binder identified from selections using a randomised WPAR motif at positions 2, 3, 4 & 5 within the 06-34-03 sequence of PCT/EP2012/069898 (SEQ ID NO 58))
Frequency (relative abundance in the total selection outputs): 1

SEQ ID NO: 86 (CSWPFRCTHQDLC; Synthetic sequence Kallikrein binder identified from selections using a randomised WPAR motif at positions 2, 3, 4 & 5 within the 06-34-03 sequence of PCT/EP2012/069898 (SEQ ID NO 58))
Frequency (relative abundance in the total selection outputs): 7

SEQ ID NO: 90 (CSYPIRCTHQDLC; Synthetic sequence Kallikrein binder identified from selections using a randomised WPAR motif at positions 2, 3, 4 & 5 within the 06-34-03 sequence of PCT/EP2012/069898 (SEQ ID NO 58))
Frequency (relative abundance in the total selection outputs): 2

SEQ ID NO: 77 (CSFPYRCTHQDLC; Synthetic sequence Kallikrein binder identified from selections using a randomised WPAR motif at positions 2, 3, 4 & 5 within the 06-34-03 sequence of PCT/EP2012/069898 (SEQ ID NO 58))
Frequency (relative abundance in the total selection outputs): 12

SEQ ID NO: 91 (CSWSARCTHQDLC; Synthetic sequence Kallikrein binder identified from selections using a randomised WPAR motif at positions 2, 3, 4 & 5 within the 06-34-03 sequence of PCT/EP2012/069898 (SEQ ID NO 58))
Frequency (relative abundance in the total selection outputs): 10

SEQ ID NO: 73 (CSWPARCTHQDLC; Synthetic sequence Kallikrein binder identified from selections using a randomised WPAR motif at positions 2, 3, 4 & 5 within the 06-34-03 sequence of PCT/EP2012/069898 (SEQ ID NO 58))
Frequency (relative abundance in the total selection outputs): 24

SEQ ID NO: 99 (CSWWARCTHQDLC; Synthetic sequence Kallikrein binder identified from selections using a randomised WPAR motif at positions 2, 3, 4 & 5 within the 06-34-03 sequence of PCT/EP2012/069898 (SEQ ID NO 58))
Frequency (relative abundance in the total selection outputs): 1
